Article PMC4010968, “Nap1 stimulates homologous recombination by RAD51 and RAD54 in higher-ordered chromatin containing histone H1” (Scientific Reports, 2014)

T1: Human RAD54 (purified) (human, UniProt Q92698 1-747)
T1 construct: RAD54, human cDNA inserted into pFastBac HTc; purification details are in the Supplementary Methods; also called purified RAD54; source: recombinant human RAD54 baculovirus (pFastBac HTc vector), purified; details in Supplementary Methods
T1 sequence (looked up): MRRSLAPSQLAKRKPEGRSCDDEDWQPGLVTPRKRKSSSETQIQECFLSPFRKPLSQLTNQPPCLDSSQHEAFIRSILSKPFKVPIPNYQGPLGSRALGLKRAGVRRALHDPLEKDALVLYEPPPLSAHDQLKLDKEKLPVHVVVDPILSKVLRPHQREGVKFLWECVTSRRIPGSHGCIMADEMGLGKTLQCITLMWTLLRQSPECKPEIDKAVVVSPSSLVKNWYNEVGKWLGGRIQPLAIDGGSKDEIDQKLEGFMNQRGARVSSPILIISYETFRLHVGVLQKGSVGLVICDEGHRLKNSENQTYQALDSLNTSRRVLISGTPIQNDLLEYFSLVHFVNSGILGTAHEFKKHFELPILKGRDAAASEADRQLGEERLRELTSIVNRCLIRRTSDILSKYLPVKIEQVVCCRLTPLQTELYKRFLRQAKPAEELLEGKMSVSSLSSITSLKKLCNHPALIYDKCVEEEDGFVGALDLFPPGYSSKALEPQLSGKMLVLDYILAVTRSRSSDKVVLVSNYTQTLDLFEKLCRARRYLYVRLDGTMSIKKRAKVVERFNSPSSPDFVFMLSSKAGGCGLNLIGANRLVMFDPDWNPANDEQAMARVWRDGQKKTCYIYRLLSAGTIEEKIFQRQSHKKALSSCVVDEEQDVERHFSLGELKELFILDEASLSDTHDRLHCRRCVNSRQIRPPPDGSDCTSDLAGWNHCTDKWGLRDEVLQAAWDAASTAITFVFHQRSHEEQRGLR


Tests used:
[1] = target: T1, Human RAD54 (purified); experiment: pull-down; Nap1-conjugated beads with purified RAD51 alone or purified RAD54 alone; SDS-PAGE with Coomassie Brilliant Blue staining; conditions: both partners purified
[2] = target: T1, Human RAD54 (purified); experiment: native gel or EMSA; Nap1 or mutant incubated with the indicated amounts of RAD54; 5% native PAGE with Coomassie Brilliant Blue staining; RAD54 alone does not enter the gel; conditions: both partners purified

binding result [1] | binding result [2] | Binder
binds |  | Human Nap1 (purified, wild type) (natural protein, UniProt P55209 1-391, looked up, Nap1 (histone chaperone, nucleosome assembly protein 1), human; also called purified Nap1; wild type Nap1) MADIDNKEQSELDQDLDDVEEVEEEETGEETKLKARQLTVQMMQNPQILAALQERLDGLVETPTGYIESLPRVVKRRVNALKNLQVKCAQIEAKFYEEVHDLERKYAVLYQPLFDKRFEIINAIYEPTEEECEWKPDEEDEISEELKEKAKIEDEKKDEEKEDPKGIPEFWLTVFKNVDLLSDMVQEHDEPILKHLKDIKVKFSDAGQPMSFVLEFHFEPNEYFTNEVLTKTYRMRSEPDDSDPFSFDGPEIMGCTGCQIDWKKGKNVTLKTIKKKQKHKGRGTVRTVTKTVSNDSFFNFFAPPEVPESGDLDDDAEAILAADFEIGHFLRERIIPRSVLYFTGEAIEDDDDDYDEEGEEADEEGEEEGDEENDPDYDPKKDQNPAECKQQ
 | binds | Nap1(E215,219,222,227K) mutant (natural protein, human, UniProt P55209 1-391, looked up, Nap1, human, with Glu215, Glu219, Glu222 and Glu227 replaced by Lys; A trace amount of a read-through product was present as a contaminant in the purified fraction; also called Nap1(E215K,E219K,E222K,E227K) mutant; Nap1 mutant) MADIDNKEQSELDQDLDDVEEVEEEETGEETKLKARQLTVQMMQNPQILAALQERLDGLVETPTGYIESLPRVVKRRVNALKNLQVKCAQIEAKFYEEVHDLERKYAVLYQPLFDKRFEIINAIYEPTEEECEWKPDEEDEISEELKEKAKIEDEKKDEEKEDPKGIPEFWLTVFKNVDLLSDMVQEHDEPILKHLKDIKVKFSDAGQPMSFVLKFHFKPNKYFTNKVLTKTYRMRSEPDDSDPFSFDGPEIMGCTGCQIDWKKGKNVTLKTIKKKQKHKGRGTVRTVTKTVSNDSFFNFFAPPEVPESGDLDDDAEAILAADFEIGHFLRERIIPRSVLYFTGEAIEDDDDDYDEEGEEADEEGEEEGDEENDPDYDPKKDQNPAECKQQ
